Assay [1] deals with hT40, dGA, dGAE and truncated tau fragments. As to the kind of experiment: Binding ELISA / epitope mapping of anti-tau scAbs with truncated tau proteins and 13mer peptides. More on the design: species or system human. Conditions: for Tau proteins/fragments with positive scAb reactivity: binding ELISA; for Shortest region bound on hT40: incl. 13mer peptides; for Short epitope on hT40: Table 18, '3a' & '3b' series scAbs; for hT40 binding region: second Table 25, mAb format. In outline: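 Serially double-diluted scAbs were applied to 2% MPBS-blocked wells carrying either 1 μg/ml full-length or truncated tau, or biotinylated 13mer peptides (1 μg/ml) captured on 5 μg/ml streptavidin. Absorbance after HRP anti-human C kappa secondary gave the binding signal.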
On the technique in general: In an ELISA, binding on a coated surface is turned into a signal by an enzyme label.

Assay [2] deals with T1, hT40 (T441, SEQ ID NO: 1) (Homo sapiens, UniProt P10636).
T1 construct: Full length tau (hT40)
Put plainly: Biacore X100 SPR kinetics of scAbs for hT40. The class given is binding. As for the experimental part:
Surface plasmon resonance (SPR) is widely regarded as the gold standard for real time measurement of protein-protein interactions such as antibody binding. All SPR experiments were carried out using a Biacore X100 machine and HBS EP+ running buffer (GE Healthcare). A ‘capture’ method was followed for affinity measurements, where an anti-human constant kappa chain (HuCk) antibody was conjugated to the surface of a CM5 sensor chip using an amine coupling kit and scAb molecules were immobilised via their HuCk domain. Amine coupling is a very common approach for immobilising the ligand to the chip surface. […] The capture antibody was diluted 1/100 in 10 mM Sodium acetate buffer pH 5.0 and passed over the activated chip surface for a period of at least 420 s. Final ligand immobilisation levels over 12,000 RU were deemed to be satisfactory.
(§1) Following immobilisation, the level of each scAb to be captured was identified using the standard SPR equation with a theoretical RMax of 100 RU. Analyte MW refers to the molecular weight of hT40 or dGA/dGAE molecules, while ligand MW refers to the molecular weight of the scAbs tested. RL is the desired capture level and S refers to the stoichiometric ratio:
The scAb to be tested was added only to flow cell 2 so that flow cell 1 could act as a control to subtract any interaction with the analyte and the chip surface. Both single and multi-cycle runs were utilised using wizards developed in the Biacore X100 control software which are both accepted methods of kinetic analysis (Karlsson, R., et al. Analyzing a kinetic titration series using affinity biosensors (2006) Analytical Biochemistry 349:136-47). The multi-cycle protocol was as follows-Three start-up cycles composed of an initial capture, to the desired level, of the scAb to be tested was performed followed by a 30 s injection of glycine buffer pH 2.0 after each cycle to regenerate the chip surface. […] Following three start-up cycles increasing concentrations (0.15625 nM-100 nM) of the target to be tested were added to the chip surface after the desired scAb capture. The target was added for a 120 s association period and 420 s dissociation period followed by another regeneration, 30 s injection of glycine buffer pH 2.0 in between each cycle.
(§2) The single cycle kinetics protocol was similar and utilised the same level of scAb capture. Three start-up cycles were used followed by 5 increasing concentrations of the analyte (6.25 nM-100 nM) for an association period of 120 s followed by a dissociation period of 420 s for each concentration. In single cycle kinetics the regeneration step was performed only after the final analyte concentration was added. Binding responses were analysed in Biacore X100 evaluation software and data fitted to a 1:1 binding model to obtain kinetic and affinity characterisation.

For assay [3], the target named is T2, htau40 (Homo sapiens, UniProt P10636).
T2 construct: Full length tau (hT40)
As to the kind of experiment: Biacore X100 SPR kinetics of anti-tau mAbs on immobilised htau40. The class given is binding. As for the experimental part:
For anti-tau mAb SPR measurements, htau40 was conjugated to the surface of a CM5 sensor chip using amine coupling as explained previously. Briefly, 2 μg/mL htau40 in 10 mM Sodium acetate buffer (pH 4.0) was passed over the activated chip surface (EDC/NHS) in flow cell 2 for a period for 45 s followed by blocking with 1 M ethanolamine-HCl PH 8.5. Flow cell 1 was set up as reference control and blocked simultaneously. Final immobilisation level of htau40 (Rmax) was approximately 250 RU. Following a minimum of three start-up cycles, increasing concentrations (0.78 nM-25 nM) of the mAb in HBS-EP+ buffer was added at a rate of […] to the chip. The mAb was added for a 120 s association period and 600 s dissociation period followed by a regeneration cycle of 30 s injection of glycine buffer pH 1.5 in between each cycle. Binding responses were analysed in Biacore X100 evaluation software and data fitted to a 1:1 binding model to obtain kinetic and affinity characterisation.
For anti-tau mAb SPR measurements (Biacore X100™) and epitope mapping, the same methodologies described above (see Example 16) were followed. Kinetic rates and equilibrium binding constants of additional anti-tau mAbs and the regions recognised on hT40 are given in the Table 25 below

Assay [4] addresses dGA (SEQ ID NO: 5) (Homo sapiens, UniProt P10636). As to the kind of experiment: Biacore X100 SPR kinetics of scAbs for dGA. The class given is binding. The note with it: Table 24, scAb, dGA analyte. On the procedure:
Surface plasmon resonance (SPR) is widely regarded as the gold standard for real time measurement of protein-protein interactions such as antibody binding. All SPR experiments were carried out using a Biacore X100 machine and HBS EP+ running buffer (GE Healthcare). A ‘capture’ method was followed for affinity measurements, where an anti-human constant kappa chain (HuCk) antibody was conjugated to the surface of a CM5 sensor chip using an amine coupling kit and scAb molecules were immobilised via their HuCk domain. Amine coupling is a very common approach for immobilising the ligand to the chip surface. The chip surface has a dextran matrix derivatised with carboxyl groups, which after activation with N-hydroxysuccinimide (NHS) and 1-ethyl-3-(3-dimethylaminopropyl) carbodiimide (EDC), form reactive succinimide esters which allows the covalent capturing of the ligand via any available primary amine groups (e.g. Lysine) on the ligand (in this case anti-HuCk antibody). The capture antibody was diluted 1/100 in 10 mM Sodium acetate buffer pH 5.0 and passed over the activated chip surface for a period of at least 420 s. Final ligand immobilisation levels over 12,000 RU were deemed to be satisfactory.
as §1
The scAb to be tested was added only to flow cell 2 so that flow cell 1 could act as a control to subtract any interaction with the analyte and the chip surface. Both single and multi-cycle runs were utilised using wizards developed in the Biacore X100 control software which are both accepted methods of kinetic analysis (Karlsson, R., et al. Analyzing a kinetic titration series using affinity biosensors (2006) Analytical Biochemistry 349:136-47). The multi-cycle protocol was as follows-Three start-up cycles composed of an initial capture, to the desired level, of the scAb to be tested was performed followed by a 30 s injection of glycine buffer pH 2.0 after each cycle to regenerate the chip surface. The regeneration step removed any captured scAb whilst leaving the capture antibody intact and able to repeat the capture for the next cycle. Following three start-up cycles increasing concentrations (0.15625 nM-100 nM) of the target to be tested were added to the chip surface after the desired scAb capture. The target was added for a 120 s association period and 420 s dissociation period followed by another regeneration, 30 s injection of glycine buffer pH 2.0 in between each cycle.
as §2
For orientation: Surface plasmon resonance follows binding to a sensor surface in real time, without labels.

The mark [5] stands for this setting: Table 26 summary, top scAbs, residues of hT40.
Where [6] appears, read: residue numbers of SEQ ID NO: 1 (hT40), CDR Tables 1-11.
[7] abbreviates: Table 23, scAb captured, T441 (hT40) analyte, 1:1 model.
Where [8] appears, read: Table 27, mAb format, immobilised htau40.
Where [9] appears, read: Table 25, '3a' and '3b' scAbs, hT40.
The mark [10] stands for this setting: second Table 25, newly converted mAbs, hT40.

T2 sequence (P10636 1-441 isoform P10636-8): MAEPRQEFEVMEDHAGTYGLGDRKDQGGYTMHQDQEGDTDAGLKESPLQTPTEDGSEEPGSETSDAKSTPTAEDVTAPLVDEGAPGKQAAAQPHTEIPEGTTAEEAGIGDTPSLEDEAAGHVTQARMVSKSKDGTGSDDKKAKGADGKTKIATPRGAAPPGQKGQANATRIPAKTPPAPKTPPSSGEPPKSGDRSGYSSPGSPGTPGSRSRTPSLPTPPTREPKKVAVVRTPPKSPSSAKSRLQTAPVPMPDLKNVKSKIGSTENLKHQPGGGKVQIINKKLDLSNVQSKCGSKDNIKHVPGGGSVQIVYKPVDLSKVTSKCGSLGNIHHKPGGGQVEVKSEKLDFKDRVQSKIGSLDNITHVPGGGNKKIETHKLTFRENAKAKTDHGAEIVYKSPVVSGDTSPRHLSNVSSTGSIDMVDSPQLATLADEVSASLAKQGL
T1 sequence (P10636 1-441 isoform P10636-8): as above
Sequence of dGA (SEQ ID NO: 5) (P10636 614-707): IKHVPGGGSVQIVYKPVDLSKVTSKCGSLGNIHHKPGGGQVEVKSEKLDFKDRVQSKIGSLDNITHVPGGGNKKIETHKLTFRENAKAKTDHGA

B1: CC7: human-specific anti-tau clone, Table 10; SEQ ID NO: 365 (protein)
scFv: QVQLQESGPSLVKPSQTLSLTCTVSGFSLTSNAVIWVRQAPGKAPEWVALIDVDGDAAYDPALKSRLSITRDTSKSQVSLSLRSVTTEDTAVYYCARDYGSWGYVSDIDYWGPGLLVTVSSEGKSSGASGESKVDDRVVRTQPSSVSGSLGQRVSITCSGSYITGSSVGWFQQVPGSGLKTVIYDNNDRPSGVPDRFSGSKSGDTATLTISSLQAEDEADYYCASYDTSNIGLFGSGTRLTVLG
modifications: CC7 amino acid sequence
As for B1, in assay [1] (Table 17, 'C' group scAbs), the “Tau proteins/fragments with positive scAb reactivity” value is “hT40, 1-319” and the “Shortest region bound on hT40” value is 145-157. In assay [1] (setting [5]), the Epitope was 145-157. The “Detection scAb (Epitope)” value in assay [1] (Table 28 (LoD table), residues of hT40) was “CC7 (145-157)”. In assay [1] (amino acid residues of hT40), the “binding region on hT40” value was 145-157. Further, in assay [1] (setting [6]), the Epitope is recorded as 145-157. In assay [2] (setting [7]), the “ka” value amounted to 295700 M⁻¹ s⁻¹ and the “kd” value is 0.0003659 s⁻¹. Besides, in assay [3] (setting [8]), the “ka” value amounted to 4.576e+06 M⁻¹ s⁻¹ and the “kd” value was found to be 0.03164 s⁻¹.

B2: 3aH6: N-terminal anti-tau clone, Table 6; SEQ ID NO: 423 (protein)
chain: QVQLQESGPSLVKPSQTLSLTCTVSGFSLSSNGVGWVRQAPGKVPEWLGDISSVGKKYANPALKSRLSFTRDTSKSQVSLSLSSVTTEDTAVYYCVKCRDGGVTYGYDIDYWGPGLLVTASSEGKSSGASGESKVDDQAVVTQPSSVSGSLGQSVSITCSGSSGNVGYGDYVSWFQQFHGSAPKLLIYGATNLASGVPARFSGSRSGNTATLTISSLHAEDEADYYCASYDSSSGGVFGSGTRLTVLG
modifications: 3aH6 amino acid sequence
For B2, in assay [1], the “Short epitope on hT40” value is recorded as 1-49 and the hT40 binding region is 1-15. Also, in assay [1] (setting [6]), the Epitope is reported as 1-49. In assay [2] (setting [9]), the “ka” value was determined as 2.757e+06 M⁻¹ s⁻¹ and the “kd” value worked out at 0.009868 s⁻¹. In addition, in assay [3] (setting [10]), the “ka” value stood at 3.128e+06 M⁻¹ s⁻¹ and the “kd” value came out at 0.0001522 s⁻¹.

B3: S1E12: anti-tau clone, Table 11; SEQ ID NO: 218 (protein)
scFv: QVQLQESGPSLVKPSQTLSLTCTVSGFSLGSNSVGWVRQAPGKAPEWVAGIDTDGEEGYNPALNSRLSITRDTSKSQVSLSLSSVTSEDTAVYYCGRSYRADGLAYGYVQAIDYWGPGLLVTVSSEGKSSGASGESKVDDRVVRTQPSSVSGSLGQRVSITCSGSFIGISSVGWFQQLPGSGLRTIIVASDGRPSGVPDRFSMSKSGNTATLTISSLQAEDEADYFCGSSDRTQYTGVFGSGTRLTVLG
modifications: S1E12 amino acid sequence
For B3, the “Tau proteins/fragments with positive scAb reactivity” value in assay [1] (Table 16, NS, S and M clones) was “hT40, 297-390 (dGA), 297-391 (dGAE)”. Moreover, in assay [1] (Table 16, NS, S and M clones), the “Shortest region bound on hT40” value was 297-390. In addition, the Epitope in assay [1] (setting [5]) and in assay [1] (setting [6]) was 297-390 throughout. The “ka” value is 385000 M⁻¹ s⁻¹ in assay [2] (setting [7]) and 2.99e+06 M⁻¹ s⁻¹ in assay [4]. The “kd” value in assay [2] (setting [7]) amounted to 0.000319 s⁻¹. Moreover, in assay [4] (dissociation rate), the “Kd” value was found to be 0.001627 s⁻¹.

B4: 3aG3: N-terminal anti-tau clone, Table 6; SEQ ID NO: 424 (protein)
chain: QVQLQESGPSLVKPSQTLSLTCTVSGFSLSSNGVGWVRQAPGKVPEWVGDISSSGKAYANPALKSRLSITRDTAKTQVFLSLSSVTTEDTAVYYCVRCRDGGVSYGYDIDYWGPGLLVTVSSEGKSSGASGESKVDDQAVLTQPPSVSGSPGQRVSITCSGSSSNIGGGNYLSWFQQVPGSAPKLLIYGATSRASGVPDRFSGSRSGNTATLTISSLQAEDEADYYCASFDTSSGGIFGAGTRLTVLG
modifications: 3aG3 amino acid sequence
As for B4, in assay [1], the “Short epitope on hT40” value was 1-49 and the hT40 binding region is 1-15. Besides, the Epitope in assay [1] (setting [6]) is reported as 1-49. Also, in assay [2] (setting [9]), the “ka” value stood at 62940 M⁻¹ s⁻¹ and the “kd” value is 0.0003869 s⁻¹. Further, in assay [3] (setting [10]), the “ka” value amounted to 1.532e+07 M⁻¹ s⁻¹ and the “kd” value came out at 0.004751 s⁻¹.

B5: 3bG4: N-terminal anti-tau clone, Table 6; SEQ ID NO: 425 (protein)
chain: QVQLQESGPSLVKPSQTLSLTCTISGFSLISNGVGWVRQAPGKVPEWVGDIASSGKAYSNPALKSRLSITRDTSKSQVSLSLRSVTTEDTAVYYCVRCRDGGVTYGYDIDYWGPGLLVTVSSEGKSSGASGESKVDDQAVLTQPSSVSKSLGQSVSITCSGSTSNVGSGNDVSWFQQVPGSAPKLLFYGATNRASGVPDRFSGSRSGNTATLTITSLQAEDEADYYCGSYDSNSGGIFGSGTRLTVLG
modifications: 3bG4 amino acid sequence
As for B5, in assay [1], the “Short epitope on hT40” value was 1-49 and the hT40 binding region is recorded as 1-15. In addition, in assay [1] (setting [6]), the Epitope is given as 1-49. Besides, the “Binding region hT40” value in assay [1] (second Table 26, own antibodies) is “(Binding region hT40 1-15)”. Moreover, in assay [2] (setting [9]), the “ka” value is 6.669e+06 M⁻¹ s⁻¹ and the “kd” value was 0.05966 s⁻¹. Besides, in assay [3] (setting [10]), the “ka” value amounted to 4.54e+06 M⁻¹ s⁻¹ and the “kd” value was determined as 0.0002964 s⁻¹.

For the origin of these results see US20250355001A1, “METHOD FOR DETECTING A TAU PROTEIN FRAGMENT IN A SAMPLE” (GTINVENT LIMITED, priority 2022, published 2025).
